Assay results from EP4707390A1 (PeptiDream Inc., dated 2026).

Biological target: T1, Recombinant human IgG1 Fc protein (110-HG, R&D Systems) (human, UniProt P01857-1 100-330 = IgG part)
T1 construct: domain: Fc; Bought protein; also called human IgG Fc protein; biotinylated Fc
Assay: display assay, conjugates on linker 1 or 3, biotinylated Fc on streptavidin magnetic beads against beads without Fc, real-time PCR

B1: Fc-binding peptide encoded by the translation region of SEQ ID NO: 26 (peptide)
peptide: MPDCAYHKGELVWCTGGGGSS
modifications: C-terminus covalently bonded to the puromycin of the linker; sample treated with oxidized glutathione after reverse transcription
notes: Tested as an mRNA/cDNA-linker-peptide conjugate on monovalent linker 1 or divalent linker 3
  binding result: binds
